Measurements from patent publication US10005846.

Experiments:
[1] = molecular target: human transglutaminase type 2 (TG2) (human) (UniProt P21980); assay: ELISA on immobilised human TG2; r2 0.9588; EC50 95% confidence range 0.06801 to 0.2396 [panel A]
[2] = molecular target: cynomolgus monkey TG2 (cynomolgus monkey); assay: ELISA on immobilised cynomolgus monkey TG2; r2 0.9994; EC50 95% confidence range 0.3762 to 0.4603 [panel A]
[3] = molecular target: cynomolgus monkey TG2 (cynomolgus monkey); assay: ELISA on immobilised cynomolgus monkey TG2; r2 0.9586; EC50 95% confidence range 0.09303 to 0.4223 [panel A]
[4] = molecular target: human transglutaminase type 2 (TG2) (human) (UniProt P21980); assay: ELISA on immobilised human TG2; r2 0.9991; EC50 95% confidence range 0.3291 to 0.4396 [panel A]
[5] = molecular target: cynomolgus monkey TG2 (cynomolgus monkey)
[6] = molecular target: human transglutaminase type 2 (TG2) (human) (UniProt P21980)

Chain of cynomolgus monkey TG2 (cynomolgus monkey) (chain, as listed by the source): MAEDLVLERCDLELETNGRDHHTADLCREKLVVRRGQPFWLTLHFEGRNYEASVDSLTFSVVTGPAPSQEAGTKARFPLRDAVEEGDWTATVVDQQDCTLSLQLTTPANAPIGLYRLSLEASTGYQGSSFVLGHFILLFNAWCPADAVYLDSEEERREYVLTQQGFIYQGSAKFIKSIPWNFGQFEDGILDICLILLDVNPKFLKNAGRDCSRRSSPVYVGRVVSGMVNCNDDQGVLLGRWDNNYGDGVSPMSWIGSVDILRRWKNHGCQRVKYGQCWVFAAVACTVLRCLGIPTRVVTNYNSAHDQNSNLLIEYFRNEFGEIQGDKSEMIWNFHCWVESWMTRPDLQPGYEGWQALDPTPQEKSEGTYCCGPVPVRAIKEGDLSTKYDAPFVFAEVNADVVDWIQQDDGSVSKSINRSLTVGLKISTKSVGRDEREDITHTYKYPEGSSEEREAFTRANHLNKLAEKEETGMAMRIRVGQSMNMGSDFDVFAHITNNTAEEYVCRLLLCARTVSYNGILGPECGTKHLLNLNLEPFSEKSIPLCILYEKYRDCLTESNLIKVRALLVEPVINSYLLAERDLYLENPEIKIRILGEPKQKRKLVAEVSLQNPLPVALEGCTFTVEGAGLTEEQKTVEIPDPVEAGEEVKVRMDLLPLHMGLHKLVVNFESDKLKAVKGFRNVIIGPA
Chain of human transglutaminase type 2 (TG2) (human) (P21980 whole entry): as the sequence (chain, as listed by the source) above, with D4E, R157Q, S177N, S413H, T421I, H528Y, I542V counted along it

How did the EC50 [1] turn out when CUB7402 commercial anti-TG2 antibody was run?
Its EC50 is 0.128 nM.

What about the EC50 [2] of the same substance?
The EC50 was 0.416 nM.

And the EC50 [3]?
The EC50 was 0.198 nM.

And the EC50 [4]?
The EC50 was 0.38 nM.

And the IC50 of enzymatic inhibition, dansylated lysine incorporation into N,N-dimethylated casein [panel B] [5]?
The IC50 of enzymatic inhibition, dansylated lysine incorporation into N,N-dimethylated casein [panel B] was > 100 nM.

And the IC50 of enzymatic inhibition, dansylated lysine incorporation into N,N-dimethylated casein [continued), panel F] [6]?
Its IC50 of enzymatic inhibition, dansylated lysine incorporation into N,N-dimethylated casein [continued), panel F] is > 100 nM.
